Results: article PMC11349758

Key:
STAT5B = STAT5B (UniProt P42232); assay: anti-STAT5A IP, anti-STAT5B blot; details: reference: WT T cells, IL-2 stimulated; sites Y694
STAT5A = STAT5A (UniProt P42230); assay: anti-STAT5A IP, anti-STAT5B blot; details: reference: WT T cells, IL-2 stimulated; sites Y699

| binding against the reference (STAT5B) | binding against the reference (STAT5A) | Substance |
| --- | --- | --- |
| lost | – | STAT5A (from UniProt P42230) Stat5a KI (Y694F) T cells, IL-2 stimulated |
| – | lost | STAT5B (from UniProt P42232) Stat5b KI (Y699F) T cells, IL-2 stimulated |
